Source: patent CN115536746A (NANJING SANHOME PHARMACEUTICAL CO LTD, dated 2022)

B1: HuC94-31 (antibody, V domains shown)
VH: EVQLLESGGGLVQPGGSLRLSCAASGFTFSTSAMSWVRQAPGKGLEWVATISSGGDYTYYSDNVKGRFTISRDNSKSTLYLQMNSLRAEDTAVYYCTLGYDEADYWGQGSLLTVSS
VL: DIQMTQSPSSLSASVGDRVTITCRASQDISNYLNWYQQKPGKAPKLLIYYTSRLHSGVPSRFSGSGSGTDYTFTISSLQPEDIATYYCQQGDTFPWTFGGGTKLEIK
notes: also called HuC94-31-biotin; 抗CRTAM人源化抗体HuC94-31
B2: HuC110-34 (antibody, V domains shown)
VH: QVQLVQSGAEVKKPGASVKVSCKASGYTFTNNDINWVKQAPGQRLEWIGWIYPRDGSTQYNEKFRGRATITVDTSASTAYMELSSLRSEDTAVYFCARGLVDYWGQGTLVTVSS
VL: DVVMTQSPDSLAVSLGERATINCRSSQSLVHSNKNTYLHWYLQKPGQPPKLLIYKVSNRFSGVPDRFSGSGSGTDFTLTISSLQAEDVAVYYCSQSTRVPWTFGGGTKLEIK
notes: also called HuC110-34-biotin; 抗CRTAM人源化抗体HuC110-34
B3: HuC124-42 (antibody, V domains shown)
VH: QVQLVQSGAEVKKPGSSVKVSCKASGYSFSNYWIEWVRQAPGQGLEWIGEILPGVPTIYYNAKFKDRVTFTADKSTSTAYMELSSLRSEDTAVYYCSRDPWFAYWGQGTLVTVSA
VL: EIVLTQSPATLSVSPGERATFSCRASQSIGTSLHWFQQKPGQAPRLLIKYASQSISGIPARFSGSGSGTEFTLTISSVQSEDFAVYYCQQSNNWPFTFGGGTKLEIK
notes: also called HuC124-42-biotin; 抗CRTAM人源化抗体HuC124-42

Target: T1, cCRTAM-His (猴源CRTAM蛋白胞外区 + His标签) (猴源 (食蟹猴, cynomolgus monkey))
T1 construct: also called cCRTAM-His蛋白; 食蟹猴CRTAM
T1 chain: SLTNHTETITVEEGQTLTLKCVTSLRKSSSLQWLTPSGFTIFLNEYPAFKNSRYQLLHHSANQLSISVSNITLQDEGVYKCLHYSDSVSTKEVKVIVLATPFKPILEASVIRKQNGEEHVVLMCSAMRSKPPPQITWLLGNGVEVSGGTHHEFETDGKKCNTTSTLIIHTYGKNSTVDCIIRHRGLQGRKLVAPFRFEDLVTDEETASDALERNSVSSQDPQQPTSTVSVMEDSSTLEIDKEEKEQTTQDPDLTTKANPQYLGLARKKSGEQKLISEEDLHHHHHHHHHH
Assay: ELISA, cCRTAM-His coated at 2 μg/mL
Binder B1 has an EC50 of 4.68 ng/mL. With B2 the EC50 was 8.17 ng/mL. B3 was tested, and the EC50 was 4.78 ng/mL.
